Source: patent US11344542B2, “Treatment of aging-associated disease with modulators of leukotriene A4 hydrolase” (Alkahest, Inc., priority 2018, dated 2022)

Tests used:
Format in all cases: in vivo, mouse
[1] = test system: mRNA levels of neuronal and glial genes; test: qPCR of mRNA levels in young mice treated with recombinant human LTA4H protein; conditions: paradigm 1; vs PBS
Method: (§1) Brain tissue was sectioned or lysed and analyzed for markers of neurogenesis and aging by standard histological and biochemical methods, including qRT-PCR, Western blot, ELISA, and immunohistochemistry.
(§2) Young, 8-week old wild-type (WT; C57BL/6) mice were homogenized between groups by body weight. Following group determination, mice were injected intraperitoneally (IP) with BrdU (5-bromo-2′-deoxyuridine) formulated in PBS (phosphate buffered saline) at a final concentration of 10 mg/mL dosed at 150 mg/kg for 5 days Immediately following the BrdU dosing, group 1 was injected intravenously (IV) with PBS control and group 2 with recombinant human LTA4H protein daily for 7 consecutive days. One week after the completion of LTA4H administration, in week 3, mice in both treatment groups were injected IP with EdU (5-ethynyl-2′-deoxyuridine) formulated in PBS at a final concentration of 10 mg/mL and dosed at 50 mg/kg for 5 days. Behavioral assays were executed in week 5 and 6, and animals were sacrificed, and tissues collected immediately after completion of behavior testing in week 6. FIG. 3 depicts the treatment paradigm and injection timing for the study.
FIG. 9 reports the results of quantitative polymerase chain reaction (qPCR) quantifying mRNA levels of vesicular glutamate […] (vglut1), synapsin 1 (syn1), synaptophysin (syp), early growth response 1 (egr1), doublecortin (dcx), beta III tubulin (tuj1), glial acidic fibrillary protein (gfap), SRY-Box 2 (sox2), oligodendrocyte transcription factor 2 in 3 months old (young) wild-type (C57BL/6) mice treated with recombinant human LTA4H protein or phosphate buffered saline (PBS) control. […] Egr1 is an immediate early gene and a reduction in expression is indicative of a depression of neuronal activity. Tuj1 is a neuronal marker and the reduction in expression points to detrimental effects on neurons. […] Overall the decreases in neuronal markers and trends towards decreases in oligodendrocyte markers indicate a detrimental effect on neuronal activity and integrity in LTA4H treated animals. […]

[2] = test system: 8-week old (young) wild-type (C57BL/6) mice; test: Open field test in young mice treated with recombinant human LTA4H protein
Method: The open field test was used to evaluate general locomotor activity and exploratory behavior in a novel environment. It consisted of a square arena (50 cm×50 cm). Mice were brought to the experimental room for at least 30 min of acclimation to the experimental room conditions (dim lighting) prior to testing. Mice were placed in the center of the arena and tracked using automated software (CleverSys or San Diego Instruments) for 15 min. Total distance traveled, average velocity, and time spent in the peripheral and center zones were analyzed.
Recombinant human LTA4H (Bio-techne, 4008-SN) was buffer-exchanged into sterile PBS and dosed at 4.6 ug/150 uL by tail vein i.v. injection. SC-57461A (Cayman Chemical, 423169-68) stock solution was prepared at 10 mg/mL in DMSO. Stock solution was diluted into sterile PBS immediately prior to p.o. dosing to a final concentration of 10% DMSO and 1 mg/mL SC-57461A. Mice were p.o. dosed at 5 mg/kg. CP-105,696 (Sigma, PZ0363), Pinostilbene hydrate (Sigma, SML0098), and Montelukast (Cayman Chemical, 10008318) stock solutions were prepared at 30 mg/mL in EtOH/Solutol. Stock solutions were diluted into sterile PBS immediately prior to p.o. dosing to a final concentration of 10% EtOH and […] inhibitor. Administration to mice was performed p.o. at a dose of 10 mg/kg. Vehicle was 10% EtOH/Solutol and was dosed p.o. at a volume of 150 uL.
as §2
(§3) The initial study in young, 8-week old wild-type (WT; C57BL/6) mice was repeated in a second cohort of mice with additional timepoints and readouts. Mice were homogenized between 3 treatment groups by body weight. Group 1 (Vehicle) was injected intravenously (IV) with PBS control 3 times per week for 6 weeks, group 2 (LTA4H Pulse) with recombinant human LTA4H protein daily for 7 consecutive days, and group 3 (LTA4H Continuous) with recombinant human LTA4H protein 3 times per week for 6 weeks. In week 4 after the initiation of dosing, mice in all treatment groups were injected IP with BrdU (5-bromo-2′-deoxyuridine) formulated in PBS (phosphate buffered saline) at a final concentration of 10 mg/mL dosed at 150 mg/kg for 5 days. Behavioral assays were executed in week 5 and 6, and animals were sacrificed, and tissues collected immediately after completion of behavior testing in week 6. FIG. 10 depicts the treatment paradigm and injection timing for the study.

[3] = test system: granule cell layer of the dentate gyrus; test: Histology of labeled proliferating cells (EdU, Ki67, BrdU/DCX) in the dentate gyrus of young mice; conditions: for number of Ki67-labeled cells within the granule cell layer of the dentate gyrus: study week 6; for number of BrdU and DCX co-labeled cells within the granule cell layer of the dentate gyrus: BrdU in week 4
Method: Brains were collected following saline perfusion and separated by mid-sagittal slice with one-half drop fixed in freshly prepared 4% PFA. PFA was changed to 30% sucrose 24-48 hours later. A second change to 30% sucrose occurred 24 hours later. The second half was dissected into hippocampus and cortex and then snap frozen on dry ice.
as §1, §2, §3

[4] = paradigm 1: IV daily for 7 consecutive days, vs PBS, tested week 5-6
[5] = paradigm 2: continuous dosing, IV 3 times per week for 6 weeks

B1: recombinant human LTA4H: Recombinant human LTA4H (Bio-techne, 4008-SN), leukotriene A4 hydrolase enzyme, dosed by tail vein i.v. injection (protein, UniProt P09960 2-611, looked up)
Leukotriene A-4 hydrolase: PEIVDTCSLASPASVCRTKHLHLRCSVDFTRRTLTGTAALTVQSQEDNLRSLVLDTKDLTIEKVVINGQEVKYALGERQSYKGSPMEISLPIALSKNQEIVIEISFETSPKSSALQWLTPEQTSGKEHPYLFSQCQAIHCRAILPCQDTPSVKLTYTAEVSVPKELVALMSAIRDGETPDPEDPSRKIYKFIQKVPIPCYLIALVVGALESRQIGPRTLVWSEKEQVEKSAYEFSETESMLKIAEDLGGPYVWGQYDLLVLPPSFPYGGMENPCLTFVTPTLLAGDKSLSNVIAHEISHSWTGNLVTNKTWDHFWLNEGHTVYLERHICGRLFGEKFRHFNALGGWGELQNSVKTFGETHPFTKLVVDLTDIDPDVAYSSVPYEKGFALLFYLEQLLGGPEIFLGFLKAYVEKFSYKSITTDDWKDFLYSYFKDKVDVLNQVDWNAWLYSPGLPPIKPNYDMTLTNACIALSQRWITAKEDDLNSFNATDLKDLSSHQLNEFLAQTLQRAPLPLGHIKRMQEVYNFNAINNSEIRFRWLRLCIQSKWEDAIPLALKMATEQGRMKFTRPLFKDLAAFDKSHDQAVRTYQEHKASMHPVTAMLVGKDLKVD
egr1 mRNA expression (qPCR) [1]: significant decrease | olig 2 mRNA expression (qPCR) [1]: trend towards a decrease | tuj1 mRNA expression (qPCR) [1]: significant decrease | anxiety as measured by percent time spent in periphery or center of the open field ([2]; paradigm 1: IV daily for 7 consecutive days, vs PBS): not affected | average velocity in open field [2, 4]: no change | total distance travelled in open field [2, 4]: no change | average velocity in open field [2, 5]: significant reduction | distance traveled in open field [2, 5]: significant reduction | anxiety as measured by percent time spent in periphery or center of the open field ([2]; paradigm 2: either dosing paradigm (pulse or continuous)): not affected | general locomotion as measured by total distance travelled and average velocity ([2]; paradigm 2: pulse dosing, IV daily for 7 consecutive days): impaired with continuous dosing of LTA4H, but not with pulse dosing | number of EdU-labeled cells within the granule cell layer of the dentate gyrus ([3]; paradigm 1, EdU in week 3, vs PBS): significant decrease | number of Ki67-labeled cells within the granule cell layer of the dentate gyrus ([3]; paradigm 1, vs PBS, listed as human recombinant LTA4H protein): significant decrease | number of Ki67-labeled cells within the granule cell layer of the dentate gyrus ([3]; paradigm 1, vs PBS, listed as recombinant LTA4H): fewer Ki67 labeled cells | number of BrdU and DCX co-labeled cells within the granule cell layer of the dentate gyrus ([3]; paradigm 2: continuous dosing): significant decrease | number of BrdU and DCX co-labeled cells within the granule cell layer of the dentate gyrus ([3]; paradigm 2: pulse dosing): statistical trend towards a decrease
